Data from the RNAGym collection of RNA variant scans (doi:10.1073/pnas.2313332121).
This sample holds only a part of the variants without activity.

B1: TPR 5TU (parent)
chain: GGAUCUUCUCGAUCUAACAAAAAAGACAAAUCUGCCACAAAGCUUGAGAGCAUCUUCGGAUGCAGAGGCGGCAGCCUUCGGUGGCGCGAUAGCGCCAACGUUCUCAACUAUGACACGCAAAACGCGUGCUCCGUUGAAUGGAGUUUAUCAUG

Variants of: B1
Assay: polymerase ribozyme fitness, log enrichment relative to wild type (log ratio); higher = more active; in vitro selection for triplet polymerase activity
In short: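 Each subunit of a heterodimeric triplet polymerase ribozyme was represented by a PCR-built, transcribed mutant library that underwent triplicate single-round in vitro selection with frozen incubation at −7 °C. Extended constructs were recovered by gel excision, streptavidin-bead capture and RT-PCR, and Illumina sequencing of input and output libraries kept genotypes with ≥10 input reads and ≥1 read per output. Fitness is the logarithm of genotype enrichment relative to wild-type enrichment, from inverse-variance-weighted replicate averages, with a logarithm base of 2.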

Variant | polymerase ribozyme fitness (log ratio)
U15A C87U | -0.632
U15G A16U C85U C118U | -1.42
U15A A20U A23G A37G G68C C96U C129G U144A | ≤ -4.2
C14U U15C A16U A19G A30U A39C G48U G50A G70U A113U G141U | ≤ -4.2
C14G U55C C57A A66G G81A C85U | ≤ -4.2
U15C C38U G86A C87U C99U | -3.87
C14U A23U A37C A52G G58C C85G A119C A137U | ≤ -4.2
C14U G58U | -0.884
C14U C36G G71U A122U G124U | ≤ -4.2
U15A C87A A107U C108A | ≤ -4.2
U15C A49G C116A A138U | -3.99
C14U C96U | -0.908
C14U A22G A39G G71A C93U G152C | ≤ -4.2
C14U C85A | -2.54
C14G G80A | -1.72
U15G A21G U135C | -2.43
U15A A19C A23U G46C U53G C57A G68A G71A C93G U111G G141U | ≤ -4.2
C14G G86U | -3.77
U15A C76U C99G C105G | ≤ -4.2
U15G A24U U145G A147C | -3.02
C14U C75G U101G U135A | ≤ -4.2

Variant | polymerase ribozyme fitness (log ratio)
C14G U45A C79U G88A U104G A113U | -4.17
C14U A16U G81A A147U | -1.35
C14U A17U C38G A60U | -2.73
C14U U44A C57A G58C A73U G83C A91U | ≤ -4.2
C14G U53A G94A G124U | -3.37
C14U G81U G84U | -2.93
C14G U53G U77G A91U | ≤ -4.2
C14U U45G A47G G48C C69U C76G U109A | ≤ -4.2
U15C C85U G92U G141C U144C | -3.03
C14U U33G G59C C87U G124U G141C G152U | -4.16
C14U C76G | ≤ -4.2
C14U U15A A20G C38U C57U U90C U102G A119G A122C | ≤ -4.2
C14U A19U G84A | -0.945
C14U C32U U61C A91U | ≤ -4.2
C14U G94A C108U A137U | -4.03
U15A A20C C76U U82G A91U C118A G140C | ≤ -4.2
C14U G92C | -1.88
C14U C35U G59C A60G C85U U104A A120U G128U A147G | ≤ -4.2
C14U C85A G141C | -2.63
C14U G86U | -3.21
U15C G92A C99G U148A | ≤ -4.2

Variant | polymerase ribozyme fitness (log ratio)
U15A A40G U55A A60U C114A | ≤ -4.2
U15C U44C U61A G70U G80A C96U | ≤ -4.2
C14G U15C C38U C114U | -2.11
C14U C99A G136A | -2.47
U15C A22C C118A U144A | -0.0778
U15A A17U G65U | ≤ -4.2
U15C G86A | 0.14
C14G G92C | -2.66
C14G G92A | -4.15
C14G U15C C76A C85G | -3.78
C14U A91G C116U U134A | ≤ -4.2
C14U G92A C116G | -3.86
C14U A22G | -3.07
U15C A40U G59C C85U | 1.15
C14U G42A G59A C87A | ≤ -4.2
U15A U111C G112U | -3.91
C14G G84A C85G A106G | ≤ -4.2
C14U U146G | -1.34
U15C C36A U55A A106U C108U A115G G117U G140A | ≤ -4.2
U15A A24G A98G C99A | ≤ -4.2
C14G U56A A60C G88C C95U U139G G140A | ≤ -4.2

Variant | polymerase ribozyme fitness (log ratio)
U15C G42U G50U C93G C132A G140A U148C A150U | ≤ -4.2
U15A A142C A147U | -1.65
C14U A49G U53A C85U C116A | -3.48
U15A U55A U56A C69U C79U G86A A91U A106C A121G C125U A142C | ≤ -4.2
C14U A52G G62A C96G U104G | ≤ -4.2
C14U A66U U78C | ≤ -4.2
C14U A89U C93U | -3.88
U15A G84A C93A U134G | -4.09
U15A A22C A40C A60G | 0.68
U15C C99G | -0.377
C14U U45A G50C C57A A91U C103G C105A | ≤ -4.2
U15C A52C C85G G94A | 0.00508
C14U G84U | -3.29
C14U A73G C75G C87A A98G U111G | ≤ -4.2
U15C A17U C51U G83A C123G G152A | -2.38
C14U G83A C116A G141A | -3.95
C14U C18A U61C U139G | -4.16
C14U A26G G92C | ≤ -4.2
U15A C75G C95U A142C | ≤ -4.2
U15A A20G A26U A39G A47C C79U C103G G140A | ≤ -4.2
C14U C27G C35G A39U U82A G86A A97U | ≤ -4.2
